Laboratory results taken from US20210380703A1 (RIGEL PHARMACEUTICALS, published 2021).

Experiments:
[1] = target: ACVR2A on primary human myotubes (human, UniProt P27037 20-513); experiment: cell-based or functional assay
human ACVR2A = target: T1, human ACVR2A (human, UniProt P27037 20-135, limits assumed); experiment: ELISA
T1 construct: also called activin receptor, type II A
Procedure, shortened: (§1)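 mAb binding by ELISA; antigens: hu ACVR2A, mu ACVR2A; pos ctrl biotinylated goat anti-hu kappa LC; neg ctrl hu Fc.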

mouse ACVR2A = mouse ACVR2A (mouse, UniProt P27038 20-135, limits assumed); experiment: ELISA
Sequence of mouse ACVR2A (P27038 20-135 limits assumed): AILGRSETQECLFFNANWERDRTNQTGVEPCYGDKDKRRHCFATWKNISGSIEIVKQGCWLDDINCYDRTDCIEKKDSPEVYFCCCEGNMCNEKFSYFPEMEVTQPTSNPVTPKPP
Procedure, shortened: as §1

[2] = target: T2, biotinylated goat anti-human kappa light chain; experiment: ELISA, positive control; further: test concentration or dose not given here
T2 construct: Positive control of the ELISA
Procedure, shortened: as §1
Wherever optical density is given: test concentration or dose not given here.

Sequence of ACVR2A on primary human myotubes (P27037 20-513): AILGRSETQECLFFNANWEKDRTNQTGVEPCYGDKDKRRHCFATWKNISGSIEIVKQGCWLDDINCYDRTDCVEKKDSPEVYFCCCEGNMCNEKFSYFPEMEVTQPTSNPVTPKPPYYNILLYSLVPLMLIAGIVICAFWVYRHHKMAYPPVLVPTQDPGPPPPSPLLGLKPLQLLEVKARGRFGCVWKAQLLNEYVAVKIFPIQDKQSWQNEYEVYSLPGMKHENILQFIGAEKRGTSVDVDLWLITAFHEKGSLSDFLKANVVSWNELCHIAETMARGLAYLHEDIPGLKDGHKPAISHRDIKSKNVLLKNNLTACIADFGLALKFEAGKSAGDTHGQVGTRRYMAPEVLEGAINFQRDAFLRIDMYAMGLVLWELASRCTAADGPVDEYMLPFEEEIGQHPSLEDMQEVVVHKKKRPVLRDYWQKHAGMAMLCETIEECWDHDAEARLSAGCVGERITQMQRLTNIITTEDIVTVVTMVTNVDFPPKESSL
T1 sequence (P27037 20-135 limits assumed): as the sequence (P27038 20-135 limits assumed) above, with R20K, I73V counted along it

Phospho-SMAD3 Human Skeletal Muscle GDF8 [1]	Binder	also measured
0.0081	374_A05 (antibody, V domains shown) VH: EVQLLESGGGLVQPGGSLRLSCAASGFTFSDYGMNWVRQAPGKGLEWVANINYNGGYKGYADSVKGRFTISRDNSKNTLYLQMNSLRAEDTAVYYCARGATWHDTHLDYWGQGTLVTVSS VL: DIQMTQSPSSLSASVGDRVTITCRASQSIVRYLNWYQQKPGKAPKLVIYAATSLASGVPSRFSGSGSGTDFTLTISSLQPEDFATYYCQQSYELPLTFGGGTKVEIK	–
0.0407	374_B06 (antibody, V domains shown) VH: EVQLLESGGGLVQPGGSLRLSCAASGFTFDSYSMNWVRQAPGKGLEWVAGINYNSGYKGYADSVKGRFTISRDNSKNTLYLQMNSLRAEDTAVYYCARSANWHDTHLDYWGQGTLVTVSS VL: DIQMTQSPSSLSASVGDRVTITCRASQSILTYVNWYQQKPGKAPKLLIYAATSRASGVPSRFSGSGSGTDFTLTISSLQPEDFATYYCQQSYDTPLTFGGGTKVEIK	–
0.0083	373_C02 (antibody, V domains shown) VH: EVQLLESGGGLVQPGGSLRLSCAASGFTFDDYSMNWVRQAPGKGLEWVSGINYNSGYKGYADSVKGRFTISRDNSKNTLYLQMNSLRAEDTAVYYCARSANWHDTALDYWGQGTLVTVSS VL: DIQMTQSPSSLSASVGDRVTITCRASQSILSYVNWYQQKPGKAPKLLIYAATSRASGVPSRFSGSGSGTDFTLTISSLQPEDFATYYCQQSYNTPLTFGGGTKVEIK	–
0.0111	373_A10 (antibody, V domains shown) VH: EVQLLESGGGLVQPGGSLRLSCAASGFTFSSYGMNWVRQAPGKGLEWVSGINYNSGYTSYADSVKGRFTISRDNSKNTLYLQMNSLRAEDTAVYYCARSANWHDTALDYWGQGTLVTVSS VL: DIQMTQSPSSLSASVGDRVTITCRASQSILSYLNWYQQKPGKAPKLVIYAATSRASGVPSRFSGSGSGTDFTLTISSLQPEDFATYYCQQSYDLPLTFGGGTKVEIK	–
0.0078	373_D04 (antibody, V domains shown) VH: EVQLLESGGGLVQPGGSLRLSCAASGFTFDSYSMNWVRQAPGKGLEWVSGINYNSGYKGYADSVKGRFTISRDNSKNTLYLQMNSLRAEDTAVYYCARSANWHDTALDYWGQGTLVTVSS VL: DIQMTQSPSSLSASVGDRVTITCRASQSILSYLNWYQQKPGKAPKLLIYAATSRHSGVPSRFSGSGSGTDFTLTISSLQPEDFATYYCQQSYDSPLTFGGGTKVEIK	–
0.006	373_D10 (antibody, V domains shown) VH: EVQLLESGGGLVQPGGSLRLSCAASGFTFDSYSMNWVRQAPGKGLEWVSNINYNSGYKGYADSVKGRFTISRDNSKNTLYLQMNSLRAEDTAVYYCARSANWHDTALDYWGQGTLVTVSS VL: DIQMTQSPSSLSASVGDRVTITCRASQSILSYVNWYQQKPGKAPKLLIYAATSRASGVPSRFSGSGSGTDFTLTISSLQPEDFATYYCQQSYDLPLTFGGGTKVEIK	–
0.023	372_F08 (antibody, V domains shown) VH: EVQLLESGGGLVQPGGSLRLSCAASGFTFSDYSMNWVRQAPGKGLEWVSNINYNSGYTGYADSVKGRFTISRDNSKNTLYLQMNSLRAEDTAVYYCARSANWHDTALDYWGQGTLVTVSS VL: DIQMTQSPSSLSASVGDRVTITCRASQSILTYVNWYQQKPGKAPKLVIYAATSRASGVPSRFSGSGSGTDFTLTISSLQPEDFATYYCQQSYDTPLTFGGGTKVEIK	–

The remaining lines, values behind:

Binder	Phospho-SMAD3 Human Skeletal Muscle GDF8 [1]	also measured
368_H10 (antibody, V domains shown, VH and VL only) VH: EVQLLESGGGLVQPGGSLRLSCAASGFTFSSYSMNWVRQAPGKGLEWVSSINYNSGYKGYADSVKGRFTISRDNSKNTLYLQMNSLRAEDTAVYYCARSATWHDTHLDYWGQGTLVTVSS VL: DIQMTQSPSSLSASVGDRVTITCRASQSIVSYVNWYQQKPGKAPKLVIYAVTSLASGVPSRFSGSGSGTDFTLTISSLQPEDFATYYCQQSYETPLTFGGGTKVEIK	–	optical density (human ACVR2A): 2.28 OD; optical density (mouse ACVR2A): 2.16 OD; optical density [2]: 3.36 OD
374_C03 (antibody, V domains shown) VH: EVQLLESGGGLVQPGGSLRLSCAASGFTFDSYSMNWVRQAPGKGLEWVSGINYNSGYTSYADSVKGRFTISRDNSKNTLYLQMNSLRAEDTAVYYCARSANWHDTALDYWGQGTLVTVSS VL: DIQMTQSPSSLSASVGDRVTITCRASQSILTYLNWYQQKPGKAPKLLIYAATSRASGVPSRFSGSGSGTDFTLTISSLQPEDFATYYCQQSYDSPLTFGGGTKVEIK	0.0094	–
368_F03 (antibody, V domains shown) VH: EVQLLESGGGLVQPGGSLRLSCAASGFTFDSYSMNWVRQAPGKGLEWVAGINYNSGYTGYADSVKGRFTISRDNSKNTLYLQMNSLRAEDTAVYYCAKSANWHDTALDYWGQGTLVTVSS VL: DIQMTQSPSSLSASVGDRVTITCRASQSIISYLNWYQQKPGKAPKLVIYAATSRHSGVPSRFSGSGSGTDFTLTISSLQPEDFATYYCQQSYDSPLTFGGGTKVEIK	0.812	–
370_C03 (antibody, V domains shown) VH: EVQLLESGGGLVQPGGSLRLSCAASGFTFSSYGMNWVRQAPGKGLEWVAGINYNGGYKGYADSVKGRFTISRDNSKNTLYLQMNSLRAEDTAVYYCARSANWHDTALDYWGQGTLVTVSS VL: DIQMTQSPSSLSASVGDRVTITCRASQSILTYLNWYQQKPGKAPKLLIYYVTNRQSGVPSRFSGSGSGTDFTLTISSLQPEDFATYYCQQSYSSPLTFGGGTKVEIK	0.0029	–
369_D02 (antibody, V domains shown) VH: EVQLLESGGGLVQPGGSLRLSCAASGFTFSDYSMNWVRQAPGKGLEWVSNINYNSGYTGYADSVKGRFTISRDNSKNTLYLQMNSLRAEDTAVYYCARSANWHDTALDYWGQGTLVTVSS VL: DIQMTQSPSSLSASVGDRVTITCRASQSILSYLNWYQQKPGKAPKLVIYAVTSRASGVPSRFSGSGSGTDFTLTISSLQPEDFATYYCQQSYDTPLTFGGGTKVEIK	0.0135	–
370_D04 (antibody, V domains shown) VH: EVQLLESGGGLVQPGGSLRLSCAASGFTFDSYSMNWVRQAPGKGLEWVANINYNSGYKGYADSVKGRFTISRDNSKNTLYLQMNSLRAEDTAVYYCARSANWHDTALDYWGQGTLVTVSS VL: DIQMTQSPSSLSASVGDRVTITCRASQSILTYLNWYQQKPGKAPKLVIYAATSRASGVPSRFSGSGSGTDFTLTISSLQPEDFATYYCQQSYDNPLTFGGGTKVEIK	0.0074	–
376_G11 (antibody, V domains shown, VH and VL only) VH: EVQLLESGGGLVQPGGSLRLSCAASGFTFSSYSMNWVRQAPGKGLEWVSGINYNSGYKSYADSVKGRFTISRDNSKNTLYLQMNSLRAEDTAVYYCARSATWHDTHLDYWGQGTLVTVSS VL: DIQMTQSPSSLSASVGDRVTITCRASQSIVTYVNWYQQKPGKAPKLVIYAATSLASGVPSRFSGSGSGTDFTLTISSLQPEDFATYYCQQSYNLPLTFGGGTKVEIK	–	optical density (human ACVR2A): 3.65 OD; optical density (mouse ACVR2A): 3.6 OD; optical density [2]: 3.54 OD
365_E05 (antibody, V domains shown) VH: EVQLLESGGGLVQPGGSLRLSCAASGFTFSSYGMHWVRQAPGKGLEWVAGINYNGGYTSYADSVKGRFTISRDNSKNTLYLQMNSLRAEDTAVYYCARSANWHDTALDYWGQGTLVTVSS VL: DIQMTQSPSSLSASVGDRVTITCRASQSIVSYVNWYQQKPGKAPKLLIYAATSLASGVPSRFSGSGSGTDFTLTISSLQPEDFATYYCQQSYDNPLTFGGGTKVEIK	0.244	–
370_E09 (antibody, V domains shown) VH: EVQLLESGGGLVQPGGSLRLSCAASGFTFDDSSMHWVRQAPGKGLEWVSNINYNGGYTGYADSVKGRFTISRDNSKNTLYLQMNSLRAEDTAVYYCAKSANWHDTALDYWGQGTLVTVSS VL: DIQMTQSPSSLSASVGDRVTITCRASQSILSYVNWYQQKPGKAPKLVIYAATSRASGVPSRFSGSGSGTDFTLTISSLQPEDFATYYCQQSYELPLTFGGGTKVEIK	0.0093	–
365_E07 (antibody, V domains shown) VH: EVQLLESGGGLVQPGGSLRLSCAASGFTFDSYGMHWVRQAPGKGLEWVSGINYNSGYTSYADSVKGRFTISRDNSKNTLYLQMNSLRAEDTAVYYCAKSANWHDTHLDYWGQGTLVTVSS VL: DIQMTQSPSSLSASVGDRVTITCRASQSILSYLNWYQQKPGKAPKLLIYAATSRASGVPSRFSGSGSGTDFTLTISSLQPEDFATYYCQQSYDNPLTFGGGTKVEIK	0.518	–
369_F01 (antibody, V domains shown) VH: EVQLLESGGGLVQPGGSLRLSCAASGFTFSSYGMNWVRQAPGKGLEWVSGINYNGGYKSYADSVKGRFTISRDNSKNTLYLQMNSLRAEDTAVYYCARSANWHDTALDYWGQGTLVTVSS VL: DIQMTQSPSSLSASVGDRVTITCRASQSILTYVNWYQQKPGKAPKLLIYAATSRASGVPSRFSGSGSGTDFTLTISSLQPEDFATYYCQQSYELPLTFGGGTKVEIK	0.0317	–
368_D10 (antibody, V domains shown) VH: EVQLLESGGGLVQPGGSLRLSCAASGFTFDSYGMNWVRQAPGKGLEWVAGINYNSGYTSYADSVKGRFTISRDNSKNTLYLQMNSLRAEDTAVYYCARSATWHDTALDYWGQGTLVTVSS VL: DIQMTQSPSSLSASVGDRVTITCRASQSILSYLNWYQQKPGKAPKLVIYAATSRASGVPSRFSGSGSGTDFTLTISSLQPEDFATYYCQQSYDSPLTFGGGTKVEIK	0.0601	–
376_H08 (antibody, V domains shown, VH and VL only) VH: EVQLLESGGGLVQPGGSLRLSCAASGFTFDSYGMNWVRQAPGKGLEWVSNINYNGGYKGYADSVKGRFTISRDNSKNTLYLQMNSLRAEDTAVYYCARSATWHDTHLDYWGQGTLVTVSS VL: DIQMTQSPSSLSASVGDRVTITCRASQSILTYLNWYQQKPGKAPKLLIYAATSRHSGVPSRFSGSGSGTDFTLTISSLQPEDFATYYCQQSDSLPLTFGGGTKVEIK	–	optical density (human ACVR2A): 3.31 OD; optical density (mouse ACVR2A): 3.28 OD; optical density [2]: 3.53 OD
